According to FireProtDB (doi:10.1093/protein/gzl019):

Conditions: Bacillus caldolyticus, pH 7, Thermal, Na cacodylate/HCl 0.1 M, reversible: Yes, whole UniProt chain shown

B1: Cold shock protein CspB wild type, P41016 (protein)
chain: MQRGKVKWFNNEKGYGFIEVEGGSDVFVHFTAIQGEGFKTLEEGQEVSFEIVQGNRGPQAANVVKL
CD
  Tm: 76.9 °C
  unfolding enthalpy (van 't Hoff): 58.6 kcal/mol
DSC
  Tm: 76.9 °C
  unfolding enthalpy (calorimetric): 61.4 kcal/mol
